Assay [1] concerns the target HIV-1 JR-FL Env glycoprotein (unlabelled) on HIV-1 Gag-GFP pseudovirions (HIV-1 JR-FL, UniProt Q75760, strain). The experiment in a line: single-molecule photobleaching of immunostained virions.
The target in assay [2] is HIV-1 NL4-3 Env glycoprotein (unlabelled) on HIV-1 Gag-GFP pseudovirions (HIV-1 group M subtype B, NL4-3 (pNL4-3), strain). The assay is described as above.

B1: anti-HIV-1 gp120 monoclonal antibody PGT145 (antibody, V domains shown)
VH: QVQLVQSGAEVKKPGSSVKVSCKASGNSFSNHDVHWVRQATGQGLEWMGWMSHEGDKTGLAQKFQGRVTITRDSGASTVYMELRGLTADDTAIYYCLTGSKHRLRDYFLYNEYGPNYEEWGDYLATLDVWGHGTAVTVSS
VL: EVVITQSPLFLPVTPGEAASLSCKCSHSLQHSTGANYLAWYLQRPGQTPRLLIHLATHRASGVPDRFSGSGSGTDFTLKISRVESDDVGTYYCMQGLHSPWTFGQGTKVEIK
For B1, the binding result in assay [1] and in assay [2] was “binds” throughout.

B2: anti-HIV-1 gp41 monoclonal antibody 10E8 (antibody, V domains shown)
VH: EVQLVESGGGLVKPGGSLRLSCSASGFDFDNAWMTWVRQPPGKGLEWVGRITGPGEGWSVDYAAPVEGRFTISRLNSINFLYLEMNNLRMEDSGLYFCARTGKYYDFWSGYPPGEEYFQDWGRGTLVTVSS
VL: SYELTQETGVSVALGRTVTITCRGDSLRSHYASWYQKKPGQAPILLFYGKNNRPSGVPDRFSGSASGNRASLTISGAQAEDDAEYYCSSRDKSGSRLSVFGGGTKLTVL
Take B2: the binding result in assay [1] and in assay [2] was “binds” throughout.
